Laboratory results from patent publication US20260250381A1.

T1: human TREM2 (human) (UniProt Q9NZC2)
T1 sequence (looked up): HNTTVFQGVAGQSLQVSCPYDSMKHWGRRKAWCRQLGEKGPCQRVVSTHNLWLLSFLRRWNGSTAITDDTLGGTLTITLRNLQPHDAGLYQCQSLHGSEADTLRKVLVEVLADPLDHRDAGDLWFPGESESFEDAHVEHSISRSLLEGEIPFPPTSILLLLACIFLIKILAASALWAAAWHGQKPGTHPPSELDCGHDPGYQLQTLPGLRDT


Key:
human TREM2 (human) [1] = biological target: T1, human TREM2 (human); assay: 1st screen, 10 nM Ab
human TREM2 (human) [2] = biological target: T1, human TREM2 (human); assay: 2nd screen, 2 nM Ab
human TREM2 (human) [3] = biological target: T1, human TREM2 (human); assay: 2nd screen, 10 nM Ab

Binder | Binding Signal (fold over 6E7 parental antibody) (human TREM2 (human) [1]) [fold] | Binding Signal (fold over 6E7 parental antibody) (human TREM2 (human) [2]) [fold] | Binding Signal (fold over 6E7 parental antibody) (human TREM2 (human) [3]) [fold]
6E7 variant V24 (antibody, V domains shown) VH: EVQLVQSGAEVKKPGESLKISCKGSGYSFTSYWIAWVRQMPGKGLEWMGIIYPGDSDVRYSPSFQGQVTISADKSISTAYLQWSSLKASDTAMYFCARSRTFYYDSSDYFDYWGQGTLVTVSS VL: DIQMTQSPSSVSASVGDRVTITCRASQGISSWLAWYQQKPGKAPKLLIYAASSLQKGVPSRFSGSGSGTDFTLTISSLQPEDFATYFCQQADSFPHTFGQGTKLEIK | 2.64 | 1.42 | 2.9
6E7 variant V29 (antibody, V domains shown) VH: EVQLVQSGAEVKKPGESLKISCKGSGYSFKSYWIAWVRQMPGKGLEWMGIIYPGDSDTRYSPSFQGQVTISADKSISTAYLQWSSLKASDTAMYFCARQRTFYYDSSDYFDYWGQGTLVTVSS VL: DIQMTQSPSSVSASVGDRVTITCRASQGISSWLAWYQQKPGKAPKLLIYAASSLQNGVPSRFSGSGSGTDFTLTISSLQPEDFATYFCQQADSFPRTFGQGTKLEIK | 1.53 | 0.84 | 1.67
6E7 variant V27 (antibody, V domains shown) VH: EVQLVQSGAEVKKPGESLKISCKGSGYSFTSYWIAWVRQMPGKGLEWMGIIYPGDSDTRYAPSFQGQVTISADKSISTAYLQWSSLKASDTAMYFCVRSRTFYYDSSDYFDYWGQGTLVTVSS VL: DIQMTQSPSSVSASVGDRVTITCRASQGISSWLAWYQQKPGKAPKLLIYAASSLQRGVPSRFSGSGSGTDFTLTISSLQPEDFATYFCQQADSFPRTFGQGTKLEIK | 5.5 | 5.67 | 5.69
6E7 variant V28 (antibody, V domains shown) VH: EVQLVQSGAEVKKPGESLKISCKGSGYSFQSYWIAWVRQMPGKGLEWMGTIYPGDSDTRYSPSFQGQVTISADKSISTAYLQWSSLKASDTAMYFCARQRTFFYDSSDYFDYWGQGTLVTVSS VL: DIQMTQSPSSVSASVGDRVTITCRASQGISSWLAWYQQKPGKAPKLLIYAASSLQSGVPSRFSGSGSGTDFTLTISSLQPEDFATYFCQQADSLPRTFGQGTKLEIK | 3.08 | 2.63 | 3.61
6E7 variant V26 (antibody, V domains shown) VH: EVQLVQSGAEVKKPGESLKISCKGSGYSFTSYWIGWVRQMPGKGLEWMGTIYPGDSDTRYSPSFQGQVTISADKSISTAYLQWSSLKASDTAMYFCARQRTMYYDSSDYFDAWGQGTLVTVSS VL: DIQMTQSPSSVSASVGDRVTITCRASQGISSWLAWYQQKPGKAPKLLIYAASSLQRGVPSRFSGSGSGTDFTLTISSLQPEDFATYFCQQADSYPRTFGQGTKLEIK | 3.57 | 2.83 | 3.47
6E7 variant V25 (antibody, V domains shown) VH: EVQLVQSGAEVKKPGESLKISCKGSGYSFGSYWIAWVRQMPGKGLEWMGLIYPGDSDTRYSPSFQGQVTISADKSISTAYLQWSSLKASDTAMYFCARSRTFYYDSSDYFDYWGQGTLVTVSS VL: DIQMTQSPSSVSASVGDRVTITCRASQGISSWLAWYQQKPGKAPKLLIYAASSLANGVPSRFSGSGSGTDFTLTISSLQPEDFATYFCQQADSMPRTFGQGTKLEIK | 4.23 | 3.15 | 4.7
